Biological target: T1, Lumio-Green-labelled RFXV-motif-possessing peptide derived from WNK4 (EP4543) (not fully specified; Lumio Green fluorophore conjugated to the N-terminal linker CCPGCCGGGG)
T1 construct: N-terminal linker required for conjugating to the Lumio Green fluorophore; stretch of WNK4 with the RFQV motif; also called WNK peptide; RFXV peptide; source: synthetic peptide (GL Biochem)
T1 peptide: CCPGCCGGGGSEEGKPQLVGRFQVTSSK
Assay: fluorescence polarisation; SPAK protein titrated against 10 nM Lumio-Green-labelled peptide; 25°C; 50 mM Tris-HCl pH 7.5, 150 mM NaCl, 2 mM DTT; one-site-specific binding model
Conditions: both partners purified

fold reduction of binding against wild-type SPAK 452-547: ~100 fold
B1: human SPAK 452-547 with L491A (domain or fragment)
chain: not shown
notes: SPAK, human, residues 452-547 (end), the CCT domain, L491A; pGEX-6P-1 construct; GST-SPAK proteins were eluted with 20 mM glutathione and no cleavage of GST is described, so GST was probably still on the protein; also called SPAK CCT domain L491A (equivalent to L502 in mouse); source: E. coli BL21, purified (glutathione-Sepharose)

Source: PMC4512625, “Critical role of the SPAK protein kinase CCT domain in controlling blood pressure” (Human Molecular Genetics, 2015)
